The results in this text go back to publication PMC5839545, “CENP-C/H/I/K/M/T/W/N/L and hMis12 but not CENP-S/X participate in complex formation in the nucleoplasm of living human interphase cells outside centromeres” (PLoS ONE, 2018).

What all share (settings): partners not purified
One experiment deals with T1, mCherry-(s)-Nnf1 (human, UniProt Q6P1K2 1-205).
T1 construct: Nnf1 of the hMis12 complex, human; source: HEp-2 or U2OS cells, transfected by electroporation, in living cells
T1 sequence (looked up): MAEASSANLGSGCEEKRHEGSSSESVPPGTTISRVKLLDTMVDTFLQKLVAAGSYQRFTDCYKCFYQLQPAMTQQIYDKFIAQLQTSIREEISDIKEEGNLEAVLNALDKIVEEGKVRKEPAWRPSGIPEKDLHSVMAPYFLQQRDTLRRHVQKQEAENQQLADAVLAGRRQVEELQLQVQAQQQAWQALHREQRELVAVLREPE
Description: dual color fluorescence cross-correlation spectroscopy (DC-FCCS); EGFP and mCherry fusion proteins co-expressed in living interphase HEp-2 or U2OS cells; spots in the nucleoplasm free of kinetochores, focal volume bleached before; 37°C; 488 and 561 nm; corrected values are the measured ones times about two.

The next experiment has as its target T2, hMis12-(s)-mCherry (human, UniProt Q9H081 1-205).
T2 construct: hMis12, human; source: HEp-2 or U2OS cells, transfected by electroporation, in living cells; not shown: mCherry (short linker)
T2 sequence (looked up): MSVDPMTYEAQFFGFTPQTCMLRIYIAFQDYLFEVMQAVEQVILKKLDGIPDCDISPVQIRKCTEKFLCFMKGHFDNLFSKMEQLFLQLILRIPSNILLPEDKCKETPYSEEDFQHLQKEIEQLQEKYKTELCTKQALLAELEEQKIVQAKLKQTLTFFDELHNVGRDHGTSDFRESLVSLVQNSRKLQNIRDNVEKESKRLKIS
Described as above.

The target in a further experiment is T3, mCherry-(s)-CENP-W (human, UniProt Q5EE01 1-88).
T3 construct: CENP-W, human; source: HEp-2 or U2OS cells (DC-FCCS) and HEK293 cells (SW-FCCS), transfected by electroporation, in living cells
T3 sequence (Q5EE01 whole entry): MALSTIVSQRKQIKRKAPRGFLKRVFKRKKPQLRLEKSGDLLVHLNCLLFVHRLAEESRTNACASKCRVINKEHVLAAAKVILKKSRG
Put plainly: single-wavelength fluorescence cross-correlation spectroscopy (SW-FCCS); EGFP and mCherry fusion proteins co-expressed in living interphase HEK293 cells; nucleoplasm; 37°C; 514 nm; effective (apparent) Kd from scatter plot (S) or histogram (H), corrected for non-fluorescent mCherry and observation volumes.

Another experiment has as its target T4, CENP-T-(s)-mCherry (human, UniProt Q96BT3 1-561).
T4 construct: CENP-T, human; called full-length CENP-T against its N-terminal domain; source: HEp-2 or U2OS cells, transfected by electroporation, in living cells; not shown: mCherry (short linker)
Description: dual color fluorescence cross-correlation spectroscopy (DC-FCCS); EGFP and mCherry fusion proteins co-expressed in living interphase HEp-2 or U2OS cells; spots in the nucleoplasm free of kinetochores, focal volume bleached before; 37°C; 488 and 561 nm; corrected values are the measured ones times about two.

Another experiment concerns the target T5, mCherry-(s)-CENP-T (human, UniProt Q96BT3 1-561).
T5 construct: CENP-T, human; called wildtype against CENP-T^∆N; source: HEp-2 or U2OS cells (DC-FCCS) and HEK293 cells (SW-FCCS), transfected by electroporation, in living cells
The description is as above.

A further experiment deals with T6, Nnf1-(s)-mCherry (human, UniProt Q6P1K2 1-205).
T6 construct: Nnf1 of the hMis12 complex, human; source: HEp-2 or U2OS cells, transfected by electroporation, in living cells; not shown: mCherry (short linker)
T6 sequence (looked up): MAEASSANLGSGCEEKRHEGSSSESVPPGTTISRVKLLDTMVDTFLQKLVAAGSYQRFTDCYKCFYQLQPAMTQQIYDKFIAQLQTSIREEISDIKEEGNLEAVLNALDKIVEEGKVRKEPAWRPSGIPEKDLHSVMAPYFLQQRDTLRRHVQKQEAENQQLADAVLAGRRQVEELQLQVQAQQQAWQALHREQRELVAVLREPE
The description is as above.

The target of the next experiment is T7, mCherry-(s)-CENP-K (human, UniProt Q9BS16 1-269).
T7 construct: CENP-K, human; also called mCherry-CENP-K; source: HEp-2 or U2OS cells, transfected by electroporation, in living cells
T7 sequence (Q9BS16 whole entry): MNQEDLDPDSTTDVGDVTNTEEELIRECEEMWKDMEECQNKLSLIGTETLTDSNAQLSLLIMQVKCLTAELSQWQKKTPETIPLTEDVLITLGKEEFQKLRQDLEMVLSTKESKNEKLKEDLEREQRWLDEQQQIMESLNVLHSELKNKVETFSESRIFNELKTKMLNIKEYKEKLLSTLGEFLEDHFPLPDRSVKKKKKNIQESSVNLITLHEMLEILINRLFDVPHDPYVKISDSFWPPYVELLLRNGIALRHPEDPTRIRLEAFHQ
The experiment is described as above.

The target of another experiment is T8, mCherry-(s)-Nsl1 (human, UniProt Q96IY1 1-281).
T8 construct: Nsl1 of the hMis12 complex, human; source: HEp-2 or U2OS cells, transfected by electroporation, in living cells
T8 sequence (looked up): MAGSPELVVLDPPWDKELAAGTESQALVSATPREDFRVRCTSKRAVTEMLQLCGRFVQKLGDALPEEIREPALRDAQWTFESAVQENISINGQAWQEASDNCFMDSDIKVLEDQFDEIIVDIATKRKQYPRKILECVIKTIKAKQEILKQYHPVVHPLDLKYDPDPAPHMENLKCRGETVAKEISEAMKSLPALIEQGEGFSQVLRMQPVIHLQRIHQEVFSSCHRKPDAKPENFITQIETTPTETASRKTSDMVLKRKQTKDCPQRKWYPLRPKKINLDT
The description is as above.

B1: EGFP-(s)-Nsl1 (natural protein, human, UniProt Q96IY1 1-281, looked up)
chain: MAGSPELVVLDPPWDKELAAGTESQALVSATPREDFRVRCTSKRAVTEMLQLCGRFVQKLGDALPEEIREPALRDAQWTFESAVQENISINGQAWQEASDNCFMDSDIKVLEDQFDEIIVDIATKRKQYPRKILECVIKTIKAKQEILKQYHPVVHPLDLKYDPDPAPHMENLKCRGETVAKEISEAMKSLPALIEQGEGFSQVLRMQPVIHLQRIHQEVFSSCHRKPDAKPENFITQIETTPTETASRKTSDMVLKRKQTKDCPQRKWYPLRPKKINLDT
notes: Nsl1 of the hMis12 complex, human; source: HEp-2 or U2OS cells, transfected by electroporation, in living cells
B1: the “cross-correlation, measured (%)” value in the experiment with mCherry-(s)-Nnf1 was found to be 18%.

B2: Nsl1-(s)-EGFP (natural protein, human, UniProt Q96IY1 1-281, looked up)
chain: MAGSPELVVLDPPWDKELAAGTESQALVSATPREDFRVRCTSKRAVTEMLQLCGRFVQKLGDALPEEIREPALRDAQWTFESAVQENISINGQAWQEASDNCFMDSDIKVLEDQFDEIIVDIATKRKQYPRKILECVIKTIKAKQEILKQYHPVVHPLDLKYDPDPAPHMENLKCRGETVAKEISEAMKSLPALIEQGEGFSQVLRMQPVIHLQRIHQEVFSSCHRKPDAKPENFITQIETTPTETASRKTSDMVLKRKQTKDCPQRKWYPLRPKKINLDT
notes: Nsl1 of the hMis12 complex, human; source: HEp-2 or U2OS cells, transfected by electroporation, in living cells; not shown: EGFP (short linker)
Consider B2, for which the “cross-correlation, measured (%)” value with hMis12-(s)-mCherry was determined as 36%.

B3: EGFP-(s)-CENP-T^∆N (domain or fragment, human, UniProt Q96BT3 396-561, looked up)
chain: ASPESASSTPESLQARRHHQFLEPAPAPGAAVLSSEPAEPLLVRHPPRPRTTGPRPRQDPHKAGLSHYVKLFSFYAKMPMERKALEMVEKCLDKYFQHLCDDLEVFAAHAGRKTVKPEDLELLMRRQGLVTDQVSLHVLVERHLPLEYRQLLIPCAYSGNSVFPAQ
notes: CENP-T, human, C-terminal domain, aas 396-561, said to contain the histone-fold domain (aas 376-561); also called EGFP-(s)-CENP-T^396-561; source: HEK293 cells, transfected by electroporation, in living cells
For B3, in the experiment with mCherry-(s)-CENP-W, the “dimer, corrected (%)” value turned out to be 24% and the “dimer, uncorrected (%)” value stood at 18.2%.

B4: hMis12-(s)-EGFP (natural protein, human, UniProt Q9H081 1-205, looked up)
chain: MSVDPMTYEAQFFGFTPQTCMLRIYIAFQDYLFEVMQAVEQVILKKLDGIPDCDISPVQIRKCTEKFLCFMKGHFDNLFSKMEQLFLQLILRIPSNILLPEDKCKETPYSEEDFQHLQKEIEQLQEKYKTELCTKQALLAELEEQKIVQAKLKQTLTFFDELHNVGRDHGTSDFRESLVSLVQNSRKLQNIRDNVEKESKRLKIS
notes: hMis12, human; source: HEp-2 or U2OS cells, transfected by electroporation, in living cells; not shown: EGFP (short linker)
In the case of B4, the “cross-correlation, measured (%)” value was 19% in the experiment with CENP-T-(s)-mCherry, 18% in the experiment with mCherry-(s)-CENP-T, 31% with Nnf1-(s)-mCherry and 18% with mCherry-(s)-CENP-K.

B5: EGFP-(s)-Dsn1 (natural protein, human, UniProt Q9H410 1-356, looked up)
chain: MTSVTRSEIIDEKGPVMSKTHDHQLESSLSPVEVFAKTSASLEMNQGVSEERIHLGSSPKKGGNCDLSHQERLQSKSLHLSPQEQSASYQDRRQSWRRASMKETNRRKSLHPIHQGITELSRSISVDLAESKRLGCLLLSSFQFSIQKLEPFLRDTKGFSLESFRAKASSLSEELKHFADGLETDGTLQKCFEDSNGKASDFSLEASVAEMKEYITKFSLERQTWDQLLLHYQQEAKEILSRGSTEAKITEVKVEPMTYLGSSQNEVLNTKPDYQKILQNQSKVFDCMELVMDELQGSVKQLQAFMDESTQCFQKVSVQLGKRSMQQLDPSPARKLLKLQLQNPPAIHGSGSGSCQ
notes: Dsn1 of the hMis12 complex, human; source: HEp-2 or U2OS cells, transfected by electroporation, in living cells
Take B5: the “cross-correlation, measured (%)” value was 22% in the experiment with mCherry-(s)-Nnf1, 24% with mCherry-(s)-Nsl1 and 32% with hMis12-(s)-mCherry.
